# Source: PMC9482650, “Quantitative fragmentomics allow affinity mapping of interactomes” (Nature Communications, 2022)
# B1: DFNB31, Q9P202 (peptide)
# chain: FLVTEFNVML
# Molecular target: AHNAK1, Q09666
# Assay: holdup assay
# Parameters: key: below the threshold = too weak to quantify, mostly under pKd 3.1 to 4
# Conditions: plain residues with an end cap or a label only (N-terminal biotin on a linker: ado-ado)
# Chain of AHNAK1, Q09666 (Q09666 4-100): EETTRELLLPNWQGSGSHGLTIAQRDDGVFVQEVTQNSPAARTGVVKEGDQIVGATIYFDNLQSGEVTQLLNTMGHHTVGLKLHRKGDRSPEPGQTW
row,Binder,pKd
1,B1,below the threshold

# Molecular target: T1, APBA2_1, Q99767
# T1 sequence (Q99767 563-664, limits assumed, looked up): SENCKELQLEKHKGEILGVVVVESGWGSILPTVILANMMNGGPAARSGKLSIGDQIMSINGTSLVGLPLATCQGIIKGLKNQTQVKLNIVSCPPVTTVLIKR
# Assay: holdup assay
# Parameters: key: below the threshold = too weak to quantify, mostly under pKd 3.1 to 4
# Conditions: plain residues with an end cap or a label only (N-terminal biotin on a linker: ado-ado)
row,Binder,pKd
1,B1,below the threshold

# Molecular target: T2, APBA2_2, Q99767
# T2 sequence (Q99767 654-744, limits assumed, looked up): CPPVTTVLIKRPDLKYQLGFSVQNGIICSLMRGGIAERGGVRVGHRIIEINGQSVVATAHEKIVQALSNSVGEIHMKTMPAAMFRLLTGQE
# Assay: holdup assay
# Parameters: key: below the threshold = too weak to quantify, mostly under pKd 3.1 to 4
# Conditions: plain residues with an end cap or a label only (N-terminal biotin on a linker: ado-ado)
row,Binder,pKd
1,B1,below the threshold

# Molecular target: ARHGEF12, Q9NZN5-2
# Sequence (Q9NZN5 other isoform, or with tags, fused parts or gaps): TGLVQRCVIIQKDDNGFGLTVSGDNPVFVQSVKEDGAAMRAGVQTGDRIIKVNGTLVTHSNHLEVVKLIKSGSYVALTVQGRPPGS
# Assay: holdup assay
# Parameters: key: below the threshold = too weak to quantify, mostly under pKd 3.1 to 4
# Conditions: plain residues with an end cap or a label only (N-terminal biotin on a linker: ado-ado)
row,Binder,pKd
1,B1,below the threshold

# Molecular target: T3, CARD11, Q9BXL7
# T3 sequence (Q9BXL7 662-765, limits assumed, looked up): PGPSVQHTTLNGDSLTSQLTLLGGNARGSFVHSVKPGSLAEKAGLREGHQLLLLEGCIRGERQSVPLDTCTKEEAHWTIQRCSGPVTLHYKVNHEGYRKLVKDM
# Assay: holdup assay
# Parameters: key: below the threshold = too weak to quantify, mostly under pKd 3.1 to 4
# Conditions: plain residues with an end cap or a label only (N-terminal biotin on a linker: ado-ado)
row,Binder,pKd
1,B1,below the threshold

# Molecular target: T4, DVL3, Q92997
# T4 sequence (Q92997 244-331, limits assumed, looked up): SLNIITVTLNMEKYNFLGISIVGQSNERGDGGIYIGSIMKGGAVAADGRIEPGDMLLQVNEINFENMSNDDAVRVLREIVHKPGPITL
# Assay: holdup assay
# Parameters: key: below the threshold = too weak to quantify, mostly under pKd 3.1 to 4
# Conditions: plain residues with an end cap or a label only (N-terminal biotin on a linker: ado-ado)
row,Binder,pKd
1,B1,3.66

# Molecular target: T5, FRMPD1, Q5SYB0
# T5 sequence (Q5SYB0 52-145, limits assumed, looked up): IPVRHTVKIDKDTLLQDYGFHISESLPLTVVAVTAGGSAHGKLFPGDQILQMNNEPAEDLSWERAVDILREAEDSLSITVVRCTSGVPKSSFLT
# Assay: holdup assay
# Parameters: key: below the threshold = too weak to quantify, mostly under pKd 3.1 to 4
# Conditions: plain residues with an end cap or a label only (N-terminal biotin on a linker: ado-ado)
row,Binder,pKd
1,B1,below the threshold

# Molecular target: T6, GRIP1_7, Q9Y3R0
# T6 sequence (Q9Y3R0 999-1096, limits assumed, looked up): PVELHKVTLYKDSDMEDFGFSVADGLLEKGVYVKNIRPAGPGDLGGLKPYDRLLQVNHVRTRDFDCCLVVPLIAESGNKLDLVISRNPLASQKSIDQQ
# Assay: holdup assay
# Parameters: key: below the threshold = too weak to quantify, mostly under pKd 3.1 to 4
# Conditions: plain residues with an end cap or a label only (N-terminal biotin on a linker: ado-ado)
row,Binder,pKd
1,B1,below the threshold

# Molecular target: GRIP2_3, Q9C0E4
# Sequence (Q9C0E4 238-339): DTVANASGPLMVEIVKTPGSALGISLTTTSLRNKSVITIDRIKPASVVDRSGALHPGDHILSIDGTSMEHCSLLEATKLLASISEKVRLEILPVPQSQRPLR
# Assay: holdup assay
# Parameters: key: below the threshold = too weak to quantify, mostly under pKd 3.1 to 4
# Conditions: plain residues with an end cap or a label only (N-terminal biotin on a linker: ado-ado)
row,Binder,pKd
1,B1,below the threshold

# Molecular target: T7, HTRA4, P83105
# T7 sequence (P83105 378-476, limits assumed, looked up): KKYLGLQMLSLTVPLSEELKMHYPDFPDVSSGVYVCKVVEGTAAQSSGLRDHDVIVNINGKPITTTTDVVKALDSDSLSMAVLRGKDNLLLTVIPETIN
# Assay: holdup assay
# Parameters: key: below the threshold = too weak to quantify, mostly under pKd 3.1 to 4
# Conditions: plain residues with an end cap or a label only (N-terminal biotin on a linker: ado-ado)
row,Binder,pKd
1,B1,below the threshold

# Molecular target: Inadl_3, Q8NI35
# Sequence (Q8NI35 359-469): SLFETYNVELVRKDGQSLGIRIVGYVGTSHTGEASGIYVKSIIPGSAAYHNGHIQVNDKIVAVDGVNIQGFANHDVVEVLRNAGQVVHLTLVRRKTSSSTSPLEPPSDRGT
# Assay: holdup assay
# Parameters: key: below the threshold = too weak to quantify, mostly under pKd 3.1 to 4
# Conditions: plain residues with an end cap or a label only (N-terminal biotin on a linker: ado-ado)
row,Binder,pKd
1,B1,4.73

# Molecular target: LIMK2, P53671
# Sequence (P53671 143-248): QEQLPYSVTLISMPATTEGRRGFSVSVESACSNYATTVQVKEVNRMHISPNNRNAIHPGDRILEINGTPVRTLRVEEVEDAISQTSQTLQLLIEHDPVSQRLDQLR
# Assay: holdup assay
# Parameters: key: below the threshold = too weak to quantify, mostly under pKd 3.1 to 4
# Conditions: plain residues with an end cap or a label only (N-terminal biotin on a linker: ado-ado)
row,Binder,pKd
1,B1,below the threshold

# Molecular target: T8, LNX2_2, Q8N448
# T8 sequence (Q8N448 334-432, limits assumed, looked up): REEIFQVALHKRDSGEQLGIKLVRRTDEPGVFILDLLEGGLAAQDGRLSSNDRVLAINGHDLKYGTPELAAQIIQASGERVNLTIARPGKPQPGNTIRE
# Assay: holdup assay
# Parameters: key: below the threshold = too weak to quantify, mostly under pKd 3.1 to 4
# Conditions: plain residues with an end cap or a label only (N-terminal biotin on a linker: ado-ado)
row,Binder,pKd
1,B1,below the threshold

# Molecular target: MAST2, Q6P0Q8
# Sequence (Q6P0Q8 1099-1202): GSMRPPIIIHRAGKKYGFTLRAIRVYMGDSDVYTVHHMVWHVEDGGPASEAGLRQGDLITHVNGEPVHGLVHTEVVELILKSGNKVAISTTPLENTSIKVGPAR
# Assay: holdup assay
# Parameters: key: below the threshold = too weak to quantify, mostly under pKd 3.1 to 4
# Conditions: plain residues with an end cap or a label only (N-terminal biotin on a linker: ado-ado)
row,Binder,pKd
1,B1,5.15

# Molecular target: T9, MPDZ_12, O75970
# T9 sequence (O75970 1857-1958, limits assumed, looked up): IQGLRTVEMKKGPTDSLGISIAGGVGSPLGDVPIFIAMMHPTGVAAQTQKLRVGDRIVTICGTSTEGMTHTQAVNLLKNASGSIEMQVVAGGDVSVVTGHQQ
# Assay: holdup assay
# Parameters: key: below the threshold = too weak to quantify, mostly under pKd 3.1 to 4
# Conditions: plain residues with an end cap or a label only (N-terminal biotin on a linker: ado-ado)
row,Binder,pKd
1,B1,below the threshold

# Molecular target: T10, MPP2, Q14168
# T10 sequence (Q14168 180-250, limits assumed, looked up): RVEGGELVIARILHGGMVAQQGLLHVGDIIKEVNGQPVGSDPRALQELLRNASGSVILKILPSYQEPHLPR
# Assay: holdup assay
# Parameters: key: below the threshold = too weak to quantify, mostly under pKd 3.1 to 4
# Conditions: plain residues with an end cap or a label only (N-terminal biotin on a linker: ado-ado)
row,Binder,pKd
1,B1,below the threshold

# Molecular target: T11, MPP7, Q5T2T1
# T11 sequence (Q5T2T1 134-230, limits assumed, looked up): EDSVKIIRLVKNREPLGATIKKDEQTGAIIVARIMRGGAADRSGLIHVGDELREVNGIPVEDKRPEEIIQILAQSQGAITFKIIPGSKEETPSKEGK
# Assay: holdup assay
# Parameters: key: below the threshold = too weak to quantify, mostly under pKd 3.1 to 4
# Conditions: plain residues with an end cap or a label only (N-terminal biotin on a linker: ado-ado)
row,Binder,pKd
1,B1,below the threshold

# Molecular target: T12, NHERF3_3, Q5T2W1
# T12 sequence (Q5T2W1 238-333, limits assumed, looked up): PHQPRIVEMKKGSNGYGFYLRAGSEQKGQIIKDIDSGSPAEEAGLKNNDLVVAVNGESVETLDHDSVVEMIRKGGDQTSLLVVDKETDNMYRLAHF
# Assay: holdup assay
# Parameters: key: below the threshold = too weak to quantify, mostly under pKd 3.1 to 4
# Conditions: plain residues with an end cap or a label only (N-terminal biotin on a linker: ado-ado)
row,Binder,pKd
1,B1,below the threshold

# Molecular target: T13, PDZD7_3, Q9H5P4
# T13 sequence (Q9H5P4 857-944, limits assumed, looked up): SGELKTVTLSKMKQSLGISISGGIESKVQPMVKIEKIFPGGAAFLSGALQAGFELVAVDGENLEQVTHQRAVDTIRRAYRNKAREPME
# Assay: holdup assay
# Parameters: key: below the threshold = too weak to quantify, mostly under pKd 3.1 to 4
# Conditions: plain residues with an end cap or a label only (N-terminal biotin on a linker: ado-ado)
row,Binder,pKd
1,B1,4.47

# Molecular target: SCRIB_1, Q14160
# Sequence (Q14160 718-814): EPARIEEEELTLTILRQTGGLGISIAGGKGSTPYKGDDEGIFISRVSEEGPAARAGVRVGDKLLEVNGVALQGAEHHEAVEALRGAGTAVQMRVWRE
# Assay: holdup assay
# Parameters: key: below the threshold = too weak to quantify, mostly under pKd 3.1 to 4
# Conditions: plain residues with an end cap or a label only (N-terminal biotin on a linker: ado-ado)
row,Binder,pKd
1,B1,3.86

# Molecular target: T14, SNTG1, Q9NSN8
# T14 sequence (Q9NSN8 52-150, limits assumed, looked up): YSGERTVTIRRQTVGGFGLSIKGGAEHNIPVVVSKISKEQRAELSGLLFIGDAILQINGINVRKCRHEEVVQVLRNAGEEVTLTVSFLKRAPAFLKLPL
# Assay: holdup assay
# Parameters: key: below the threshold = too weak to quantify, mostly under pKd 3.1 to 4
# Conditions: plain residues with an end cap or a label only (N-terminal biotin on a linker: ado-ado)
row,Binder,pKd
1,B1,below the threshold

# Molecular target: T15, TIAM2, Q8IVF5
# T15 sequence (Q8IVF5 885-986, limits assumed, looked up): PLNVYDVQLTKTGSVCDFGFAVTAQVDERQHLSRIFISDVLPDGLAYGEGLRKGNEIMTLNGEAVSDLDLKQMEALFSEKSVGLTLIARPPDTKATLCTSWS
# Assay: holdup assay
# Parameters: key: below the threshold = too weak to quantify, mostly under pKd 3.1 to 4
# Conditions: plain residues with an end cap or a label only (N-terminal biotin on a linker: ado-ado)
row,Binder,pKd
1,B1,3.59

# Molecular target: TJP1_2, Q07157
# Sequence (Q07157 181-274): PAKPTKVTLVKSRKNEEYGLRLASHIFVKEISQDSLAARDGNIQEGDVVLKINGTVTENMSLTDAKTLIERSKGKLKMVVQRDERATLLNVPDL
# Assay: holdup assay
# Parameters: key: below the threshold = too weak to quantify, mostly under pKd 3.1 to 4
# Conditions: plain residues with an end cap or a label only (N-terminal biotin on a linker: ado-ado)
row,Binder,pKd
1,B1,below the threshold
